Data reported in patent US20240301046A1 (MABWELL THERAPEUTICS, published 2024).
Like-named read-outs stand apart in the source and are kept apart here.

What was measured:
[1] = molecular target: T1, HiLyte488 labelled Aβ1-42 protofibrils (UniProt P05067 672-713, HiLyte488 fluorophore on part of the peptides (labelled and unlabelled Aβ1-42 monomers mixed 1:5)); test: cell-based or functional assay
[2] = molecular target: T2, Aβ1-42 (rPeptide, A-1167-2) (UniProt P05067 672-713); test: direct ELISA, coated Aβ1-42
T2 construct: domain: Aβ1-42; also called Abeta 1-42

[3] = molecular target: T3, pyroglutamate-modified Aβ (Aβp3-42) (AnaSpec, AS-29907-01) (UniProt P05067 674-713, pyroglutamate at Aβ position 3 (the N-terminus)); test: direct ELISA, coated Aβp3-42
T3 construct: domain: Aβp3-42; also called Abeta p3-42
Procedure: After 3 washes with 1× Phosphate-Buffered Saline, 0.1% Tween 20 (PBST), each plate was blocked with 1% BSA in PBS for 1 h at room temperature (RT). Diluents of Aβ antibodies (3-fold serial dilutions with concentrations in the range of 0-100 nM) were added to plates. The plate was incubated for 1 h at RT and washed 3 times. The plate was then incubated with HRP conjugated goat anti-mouse IgG (Thermo Fisher Scientific, G-21040; thermofisher.com) 1:5000 diluted in 1% BSA for 1 h at RT and washed 3 times. TMB (3,3′,5,5;-tetramethylbenzidine) Stabilized Chromogen substrate solution (Life Technologies (Thermo Fisher Scientific) SB02) was added to the plate, and the reaction was stopped by adding 1M sulfuric acid. The absorbance at 450 nm was measured in a plate reader.
(§1) Direct ELISA was used to test each antibody's affinity for Aβ₁₋₄₂ and pyroglutamate-modified Aβ (Aβₚ₃₋₄₂). Plates were coated with 0.5 μM of Aβ₁₋₄₂ (rPeptide, A-1167-2) or Aβₚ₃₋₄₂ (AnaSpec, AS-29907-01) for 2 h at 4° C. Diluents of antibodies (3-fold serial dilutions with concentrations in the range of 0-100 nM) were added to the plate for 1 h at RT. Binding of antibody to immobilized Aβ on each plate was detected by HRP-labeled secondary antibody and TMB substrate, as described in Example 2.

[4] = molecular target: T4, biotin-labelled Aβ1-40 monomer (AnaSpec, AS-61483-01) (UniProt P05067 672-711, biotin label, position not stated); test: capture ELISA, coated antibody, biotin-Aβ1-40 monomer
T4 construct: domain: Aβ1-40; also called biotin-conjugated Aβ40 monomer; biotin-Aβ monomer
Procedure: The plate was incubated for 1 h at RT and washed 3 times with PBST. The plate was then incubated with HRP-conjugated streptavidin (Thermo Fisher Scientific, SNN2004) at 1:5000 diluted in 1% BSA for 20 min at RT and washed 3 times. TMB Stabilized Chromogen substrate solution (Life Technologies, SB02) was added to the plate, and the reaction was stopped by adding 1M sulfuric acid. The absorbance at 450 nm was measured in a plate reader.
(§2) A 96-well plate was coated with 5 μg/mL of antibodies overnight at RT. The plate was then treated with diluents of biotin-labelled Aβ₁₋₄₀ monomers (AnaSpec, AS-61483-01, 4-fold serial dilutions with concentrations in the range of 0-1000 nM) for 1 h at RT. The binding of biotin-labelled Aβ₁₋₄₀ monomers with immobilized antibody was detected by HRP-conjugated streptavidin and TMB, as described in Example 2.

[5] = molecular target: T1, HiLyte488 labelled Aβ1-42 protofibrils; test: cell-based or functional assay; remark: listed apart in the source
[6] = molecular target: T1, HiLyte488 labelled Aβ1-42 protofibrils; test: cell-based or functional assay; remark: listed apart in the source
[7] = molecular target: T2, Aβ1-42 (rPeptide, A-1167-2); test: direct ELISA, coated Aβ1-42; remark: listed apart in the source
[8] = molecular target: T3, pyroglutamate-modified Aβ (Aβp3-42) …; test: direct ELISA, coated Aβp3-42; remark: listed apart in the source
Procedure: as §1

[9] = molecular target: T2, Aβ1-42 (rPeptide, A-1167-2); test: direct ELISA, coated Aβ1-42; remark: listed apart in the source
Procedure: as §1

[10] = molecular target: T2, Aβ1-42 (rPeptide, A-1167-2); test: direct ELISA, coated Aβ1-42; remark: listed apart in the source
[11] = molecular target: T3, pyroglutamate-modified Aβ (Aβp3-42) …; test: direct ELISA, coated Aβp3-42; remark: listed apart in the source
[12] = molecular target: T4, biotin-labelled Aβ1-40 monomer …; test: capture ELISA, coated antibody, biotin-Aβ1-40 monomer; remark: listed apart in the source
Procedure: as §2

[13] = molecular target: T4, biotin-labelled Aβ1-40 monomer …; test: as above; remark: listed apart in the source
Aβ1-42 protofibril = molecular target: T5, Aβ1-42 protofibril (UniProt P05067 672-713); test: ratio of competitive ELISA IC50s, monomer as reference
T5 construct: domain: Aβ1-42; soluble multimer of Aβ1-42; also called Aβ protofibril; Aβ protofibrils
Description: The binding was detected by HRP-labeled secondary antibody and TMB substrate, as described in Example 2.

ADCP (RFU) [1] [RFU]	EC50 [2] [nM]	EC50 [3] [nM]	EC50 [4] [nM]	relative ADCP [5]	ADCP (RFU) [6] [RFU]	EC50 [7] [nM]	EC50 [8] [nM]	EC50 [9] [nM]	EC50 [10] [nM]	EC50 [11] [nM]	EC50 [12] [nM]	EC50 [13] [nM]	ratio of IC50 monomer to IC50 protofibril (Aβ1-42 protofibril) [fold]	Binder
375000	0.057	19.4	59	–	–	–	–	–	–	–	–	–	–	17P04A(mIgG2a) (antibody, chimeric: human F(ab')2, mouse IgG2a CH2-CH3, recombinant) heavy: EVQLVESGGGLVKPGGSLRLSCAASGFTLSSFSMNWVRQAPGKGLEWVSSISSRRTYIYYADSAKGRFTFSRDNAKNSLYLQMNSLRAEDSAVYYCARGGYIGSPNAYDIWGQGTMVTVSSASTKGPSVFPLAPCSRSTSESTAALGCLVKDYFPEPVTVSWNSGALTSGVHTFPAVLQSSGLYSLSSVVTVPSSNFGTQTYTCNVDHKPSNTKVDKTVERKCPPCKCPAPNLLGGPSVFIFPPKIKDVLMISLSPIVTCVVVDVSEDDPDVQISWFVNNVEVHTAQTQTHREDYNSTLRVVSALPIQHQDWMSGKEFKCKVNNKDLPAPIERTISKPKGSVRAPQVYVLPPPEEEMTKKQVTLTCMVTDFMPEDIYVEWTNNGKTELNYKNTEPVLDSDGSYFMYSKLRVEKKNWVERNSYSCSVVHEGLHNHHTTKSFSRTPGK light: QTVVTQEPSLTVSPGGTVTLTCASSTGAVTSDYYPNWFQQKPGQAPRALIYSASTKHSWTPARFSGSLLGGKAALTLSGVQPEDEADYYCLLYYGGAWVFGGGTKLTVLGQPKAAPSVTLFPPSSEELQANKATLVCLISDFYPGAVTVAWKADSSPVKAGVETTTPSKQSNNKYAASSYLSLTPEQWKSHRSYSCQVTHEGSTVEKTVAPTECS
–	–	–	–	1.05 relative to ADCP response of rfmAb-1	334000	< 0.1	> 50	0.05	0.05	336	2.57	2.57	> 300	20O07A (mIgG1) (antibody, V domains shown, chimeric: fully human F(ab')2, mouse IgG1 CH2-CH3; also called Chimeric mouse 20O07A (mlgG1)) VH: EVQLVESGGGLVQPGGSLKLSCAVSGFTFSGSAIHWVRQASGKGLEWVGRIRSKVNSYATVYAASVKGRFTISRDDSKNTAFLQMNSLKTEDTAVYYCTSHAPIFDAFDIWGQGTMVTVSS VL: QSVLTQPPSVSAAPGQKVTISCSGSSSNIGNHYVSWYQQLPGTAPKFLIYDNSKRPSGIPDRFSGSKSGTSATLGITGLQTGDEADYYCGTWDSSLSTYFFGTGTKVTVL

The remaining lines, values behind:

Binder	ADCP (RFU) [1] [RFU]	EC50 [2] [nM]	EC50 [3] [nM]	EC50 [4] [nM]	relative ADCP [5]	ADCP (RFU) [6] [RFU]	EC50 [7] [nM]	EC50 [8] [nM]	EC50 [9] [nM]	EC50 [10] [nM]	EC50 [11] [nM]	EC50 [12] [nM]	EC50 [13] [nM]	ratio of IC50 monomer to IC50 protofibril (Aβ1-42 protofibril) [fold]
18P01A (mIgG1) (antibody, V domains shown, chimeric: fully human F(ab')2 (human VH, VL, CH1, CL), mouse IgG1 CH2-CH3; also called Chimeric mouse 18P01A (mlgG1); Original 18P01A (mlgG1)) VH: EVQLVESGGGLVQPGGSLKLSCAVSGFTFSGSAMHWVRQASGKGLEWVGRIRSKANSYATAYAASVKGRFTISRDDSKNTAFLQMNSLKTEDTAVYYCTSHAPNFDAFDIWGQGTMVTVSS VL: QSVLTQPPSVSAAPGQKVTISCSGSSSNIGNHYVSWYQQLPGTAPKFFIYDNSKRPSGIPDRFSGSKSGTSATLGITGLQTGDEADYYCGTWDSSLSTYVFGTGTKVTVL	673000	0.062	57.6	67	1.36 relative to ADCP response of rfmAb-1	480000	< 0.1	> 50	0.062	0.062	57.6	67	67	–
17P04A (mIgG1) (antibody, V domains shown, chimeric: fully human F(ab')2, mouse IgG1 CH2-CH3; also called 17P64A; 17P4A) VH: EVQLVESGGGLVKPGGSLRLSCAASGFTLSSFSMNWVRQAPGKGLEWVSSISSRRTYIYYADSAKGRFTFSRDNAKNSLYLQMNSLRAEDSAVYYCARGGYIGSPNAYDIWGQGTMVTVSS VL: QTVVTQEPSLTVSPGGTVTLTCASSTGAVTSDYYPNWFQQKPGQAPRALIYSASTKHSWTPARFSGSLLGGKAALTLSGVQPEDEADYYCLLYYGGAWVFGGGTKLTVL	328000	0.045	203	35.2	0.79 relative to ADCP response of rfmAb-1	284000	< 0.1	> 50	0.045	0.045	203	35.2	35.2	–
